From the supplement of paper PMC7877785
± gives the uncertainty stated by the source.

Test: self-splicing fitness, log relative to wild type (ln ratio); higher = more splicing; Tetrahymena group I intron in knt gene, E. coli kanamycin selection, DiMSum; sequences stand for … in CUCUCU…GGAGGGAAAAGUUAUCAGGCAUGCACCUGGUAGCUAGUCUUUAAACCAAUAGAUUGCAUCGGUUUAAAAGGCAAGACCGUCAAAUUGCGGGAAAGGGGUCAACAGCCGUUCAGUACCAAGUCUCAGGGGAAACUUUGAGAUGGCCUUGCAAAGGGUAUGGUAAUAAGCUGACGGACAUGGUCCUAACCACGCAGCCAAGUCCUAAGUCAACAGAUCUUCUGUUGAUAUGGAUGCAGUUCACAGACUAAAUGUCGGUCGGGGAAGAUGUAUUCUUCUCAUAAGAUAUAGUCGGACCUCUCCUUAAUGGGAGCUAGCGGAUGAAGUGAUGCAACACUGGAGCCGCUGGGAACUAAUUUGUAUGCGAAAGUAUAUUGAUUAGUUUUGGAGUACUCGUGGUCG
Summary of the method: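 Library with all eight P1ex-region intron nucleotides randomised, intron inside the knt kanamycin-resistance gene on pET-22b(+), in E. coli BL21(DE3). Cells grew overnight at 37°C or 30°C on LB agar with or without 25 μg/mL kanamycin (plus 100 μg/mL carbenicillin, 50 μM IPTG, 0.2% rhamnose), in six replicate transformations. Pooled colonies were amplicon-sequenced on Illumina HiSeq 2500. DiMSum fitness is the error-weighted combination of wild-type-normalised replicate fold changes, kanamycin versus none.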

Row | Sequence | self-splicing fitness (ln) (30 °C) | self-splicing fitness (ln) (37 °C)
1 | AAUUAGCAAUAUUACGGUAA | -2.72 ± 0.2 | -0.655 ± 0.22
2 | CUCUAGCAAUAUUACGGGGU | -3.87 ± 0.25 | -3.39 ± 0.32
3 | CCGGAGCAAUAUUACGAUGG | -3.6 ± 0.48 | -3 ± 0.43
4 | UGCGAGCAAUAUUACGACAG | -2.55 ± 0.21 | -1.29 ± 0.18
5 | CUGAAGCAAUAUUACGGGCC | -3.65 ± 0.32 | –
6 | UUCGAGCAAUAUUACGGUUG | -3.78 ± 0.19 | -2.47 ± 0.16
7 | AGGCAGCAAUAUUACGGAGG | -4.29 ± 0.26 | -2.66 ± 0.25
8 | ACUCAGCAAUAUUACGUGAA | -1.27 ± 0.053 | 0.294 ± 0.086
9 | GUUGAGCAAUAUUACGACUA | -2.4 ± 0.18 | -2.85 ± 0.22
10 | CUUUAGCAAUAUUACGCGUC | -4.35 ± 0.3 | -2.85 ± 0.22
11 | AAAGAGCAAUAUUACGACCG | -3.83 ± 0.18 | -2.5 ± 0.19
12 | GAUAAGCAAUAUUACGGGUC | -3.26 ± 0.14 | -1.81 ± 0.13
13 | ACCCAGCAAUAUUACGGAGG | -2.1 ± 0.098 | -1.35 ± 0.12
14 | GAUGAGCAAUAUUACGGUGU | -3.67 ± 0.22 | -1.15 ± 0.13
15 | AGAGAGCAAUAUUACGCUAA | – | -0.209 ± 0.21
16 | CAGCAGCAAUAUUACGGUGG | -1.17 ± 0.067 | -0.196 ± 0.088
17 | ACGGAGCAAUAUUACGUAAG | -3.18 ± 0.2 | -1.82 ± 0.24
18 | AAUUAGCAAUAUUACGCUGU | -1.44 ± 0.16 | -1.26 ± 0.2
19 | UGCAAGCAAUAUUACGCGCU | -1.28 ± 0.12 | -0.818 ± 0.12
20 | AACGAGCAAUAUUACGCCCU | -1.66 ± 0.12 | -0.745 ± 0.17
21 | UGGGAGCAAUAUUACGAUAG | -3.25 ± 0.32 | –
22 | AGGAAGCAAUAUUACGCAGC | -3.55 ± 0.33 | -1.47 ± 0.31
23 | CCUUAGCAAUAUUACGUGAC | -3.61 ± 0.28 | -2.68 ± 0.28
24 | AAACAGCAAUAUUACGCGAC | -2.77 ± 0.21 | -1.68 ± 0.14
25 | UGUCAGCAAUAUUACGGCUG | -2.9 ± 0.18 | -0.843 ± 0.18

Row | Sequence | self-splicing fitness (ln) (30 °C) | self-splicing fitness (ln) (37 °C)
26 | GAUCAGCAAUAUUACGCUCA | -0.493 ± 0.084 | -0.611 ± 0.1
27 | GCGCAGCAAUAUUACGAAAC | -0.473 ± 0.16 | -0.354 ± 0.19
28 | AUAGAGCAAUAUUACGCGGU | -4.29 ± 0.35 | -1.64 ± 0.24
29 | AGGUAGCAAUAUUACGCAAC | -3.73 ± 0.042 | -2.61 ± 0.049
30 | AUGUAGCAAUAUUACGGAGA | – | -2.06 ± 0.38
31 | ACUCAGCAAUAUUACGAUGA | -1.82 ± 0.12 | -0.791 ± 0.11
32 | AAACAGCAAUAUUACGAGGC | -3.32 ± 0.17 | -3.12 ± 0.28
33 | UGUGAGCAAUAUUACGGUAA | -2.56 ± 0.31 | -2.25 ± 0.3
34 | CCUCAGCAAUAUUACGUAUU | -4.06 ± 0.24 | -2.61 ± 0.21
35 | UAAAAGCAAUAUUACGUCCU | -0.564 ± 0.095 | 0.00684 ± 0.13
36 | AUGUAGCAAUAUUACGGUAC | -3.47 ± 0.38 | -1.89 ± 0.3
37 | AUACAGCAAUAUUACGUAGC | -3.19 ± 0.21 | -2.45 ± 0.23
38 | AAAUAGCAAUAUUACGCUUC | -3.19 ± 0.3 | -2.99 ± 0.3
39 | AGCAAGCAAUAUUACGCACC | -0.646 ± 0.14 | 0.533 ± 0.18
40 | UUACAGCAAUAUUACGAUCA | -0.398 ± 0.13 | -0.133 ± 0.17
41 | CUUAAGCAAUAUUACGGCCC | -2.8 ± 0.4 | –
42 | GCAAAGCAAUAUUACGCGAA | -1.55 ± 0.14 | -0.599 ± 0.17
43 | UGUCAGCAAUAUUACGUCGG | -1.32 ± 0.078 | -0.266 ± 0.099
44 | CUCUAGCAAUAUUACGGAUC | -3.4 ± 0.21 | -3.33 ± 0.33
45 | AGUUAGCAAUAUUACGACCA | -0.921 ± 0.093 | -0.258 ± 0.13
46 | CCCGAGCAAUAUUACGAGGA | -2.48 ± 0.17 | -0.976 ± 0.11
47 | CGCUAGCAAUAUUACGGCAG | -1.29 ± 0.082 | -0.703 ± 0.15
48 | CAUCAGCAAUAUUACGACGU | -0.965 ± 0.064 | -0.79 ± 0.09
49 | GUUGAGCAAUAUUACGCCGG | – | 0.442 ± 0.29
50 | CGAAAGCAAUAUUACGAUUA | -1.48 ± 0.11 | -1.06 ± 0.13
